Test results as given in patent publication US7304127.
Several values for one entry are separate records, joined by “and”; a condition that tells them apart may be missing. Identical values can stand only once.

The binders below were run against HIV-1LAI envelope gp120 labeled with radioactive iodine (HIV-1 LAI), P03377 (assay: 125I-gp120, peptide array).

| Binder | counts minus background (counts per 20 min) |
| --- | --- |
| LYAFLGAKFKTSAQHALT (modifications not checked) [CXCR4 301-318] | 156 |
| GLVGNSLVLVISIFYHKL (modifications not checked) [STRL33 45-62] | 164 and 95.5 |
| AFLQFSKVFLPCMYLVVF (modifications not checked) [STRL33 25-42] | 1420 and 1360 |
| IDSFILLEIIKQGCEFEN (modifications not checked) [CXCR4 261-278] | 3470 |
| GCEFENTVHKWISITEAL (modifications not checked) [CXCR4 273-290] | 264 |
| TVILILAFFACWLPYYIG (modifications not checked) [CXCR4 241-258] | 323 |
| KLSHSKGHQKRKALKTTV (modifications not checked) [CXCR4 225-242] | 130 |
| SRGSSLKILSKGKRGGHS (modifications not checked) [CXCR4 321-338] | 169 |
| LLNLAISDLFFLLTVPFW (modifications not checked) [CCR5 69-86] | 144 |
| DSSQEEHQAFLQFSKVFL (modifications not checked) [STRL33 17-34] | 870 and 2150 |
| NSLVLVISIFYHKLQSLT (modifications not checked) [STRL33 49-66] | 1260 and 1380 |
| LVISIFYHKLQSLTDVFL (modifications not checked) [STRL33 53-70] | 1620 and 1780 |
| MYLVVFVCGLVGNSLVLV (modifications not checked) [STRL33 37-54] | 168 and 236 |
| LPYYIGISIDSFILLEII (modifications not checked) [CXCR4 253-270] | 439 |
| ALKTTVILILAFFACWLP (modifications not checked) [CXCR4 237-254] | 261 |
| IIISKLSHSKGHQKRKAL (modifications not checked) [CXCR4 221-238] | 157 |
| SSFNDSSQEEHQAFLQFS (modifications not checked) [STRL33 13-30] | 2690 and 2760 |
| LKSMTDIYLLNLAISDLF (modifications not checked) [CCR5 61-78] | 210 |
| IIKQGCEFENTVHKWISI (modifications not checked) [CXCR4 269-286] | 106 |
| LNPILYAFLGAKFKTSAQ (modifications not checked) [CXCR4 297-314] | 274 |
| FKTSAQHALTSVSRGSSL (modifications not checked) [CXCR4 309-326] | 173 |
| AQHALTSVSRGSSLKILS (modifications not checked) [CXCR4 313-330] | 147 |
| AISDLFFLLTVPFWAHYA (modifications not checked) [CCR5 73-90] | 41 |
| ALAFFHCCLNPILYAFLG (modifications not checked) [CXCR4 289-306] | 181 |

| Binder | counts minus background (counts per 20 min) |
| --- | --- |
| SLKILSKGKRGGHSSVST (modifications not checked) [CXCR4 325-342] | 285 |
| EEHQAFLQFSKVFLPCMY (modifications not checked) [STRL33 21-38] | 2320 and 1820 |
| FHCCLNPILYAFLGAKFK (modifications not checked) [CXCR4 293-310] | 123 |
| ILAFFACWLPYYIGISID (modifications not checked) [CXCR4 245-262] | 184 |
| HSSVSTESESSSFHSS (modifications not checked) [CXCR4 337-352] | 103 |
| FACWLPYYIGISIDSFIL (modifications not checked) [CXCR4 249-266] | 202 |
| LTSVSRGSSLKILSKGKR (modifications not checked) [CXCR4 317-334] | 183 |
| LGAKFKTSAQHALTSVSR (modifications not checked) [CXCR4 305-322] | 200 |
| DYGFSSFNDSSQEEHQAF (modifications not checked) [STRL33 9-26] | 8580 and 8910 |
| LSKGKRGGHSSVSTESES (modifications not checked) [CXCR4 329-346] | 185 |
| KRGGHSSVSTESESSSFH (modifications not checked) [CXCR4 333-350] | 167 |
| DYHEDYGFSSFNDSSQEE (modifications not checked) [STRL33 5-22] | 3360 and 3690 |
| ILLEIIKQGCEFENTVHK (modifications not checked) [CXCR4 265-282] | 117 |
| TDIYLLNLAISDLFFLLT (modifications not checked) [CCR5 65-82] | 38 |
| MAEHDYHEDYGFSSFNDS (modifications not checked) [STRL33 1-18] | 1180 and 1320 |
| ENTVHKWISITEALAFFH (modifications not checked) [CXCR4 277-294] | 315 |
| IGISIDSFILLEIIKQGC (modifications not checked) [CXCR4 257-274] | 734 |
| NCKRLKSMTDIYLLNLAI (modifications not checked) [CCR5 57-74] | 25 |
| HKWISITEALAFFHCCLN (modifications not checked) [CXCR4 281-298] | 163 |
| SKGHQKRKALKTTVILIL (modifications not checked) [CXCR4 229-246] | 140 |
| IFYHKLQSLTDVFLVNLP (modifications not checked) [STRL33 57-74] | 1280 and 1260 |
| SITEALAFFHCCLNPILY (modifications not checked) [CXCR4 285-302] | 188 |
| QKRKALKTTVILILAFFA (modifications not checked) [CXCR4 233-250] | 283 |
